The results in this text go back to PMC11915502.

This series has as its target His6-HppX3 (Escherichia coli 3R (chicken), …, UniProt A0A0F7IE22 1-151). The series can be described thus: EMSA.

B1: Bio-PactX (actX promoter probe) (dsDNA)
DNA 1: AAGTAACTAGCGGTACTAGAGTCGACCTGCAGGCATATAAAATAAGCGCA
DNA 2: TGCGCTTATTTTATATGCCTGCAGGTCGACTCTAGTACCGCTAGTTACTT
For B1, the binding result is listed as “binds”.
